Assay results: paper doi:10.1101/414334

Experiments:
[1] = biological target: glyceraldehyde-3-phosphate dehydrogenase (GAPDH) of Thermosynechococcus elongatus (Thermosynechococcus elongatus BP-1); assay: cryo-EM structure
[2] = biological target: glyceraldehyde-3-phosphate dehydrogenase (GAPDH) of Thermosynechococcus elongatus (Thermosynechococcus elongatus BP-1); assay: crystal structure
[3] = biological target: glyceraldehyde-3-phosphate dehydrogenase (GAPDH) of Thermosynechococcus elongatus (Thermosynechococcus elongatus BP-1); assay: crystal structure; remark: listed apart in the source
[4] = biological target: phosphoribulokinase (PRK) of Thermosynechococcus elongatus, native (Thermosynechococcus elongatus (endogenous in T. elongatus cells)); assay: cryo-EM structure

CP12 of Thermosynechococcus elongatus (natural protein)
stoichiometry N (CP12 per GAPDH tetramer) [1]: 2
stoichiometry N (CP12 per GAPDH tetramer) [2]: 4
stoichiometry N (CP12 per GAPDH tetramer) [3]: 2

phosphoribulokinase (PRK) of Thermosynechococcus elongatus, native (enzyme)
stoichiometry N [4]: 2

glyceraldehyde-3-phosphate dehydrogenase (GAPDH) of Thermosynechococcus elongatus (enzyme)
stoichiometry N [1]: 4
stoichiometry N [3]: 4
